± gives the uncertainty stated by the source.
B1: Steroid hormone receptor ERR2, residues 100 to 176; numbered along this chain, O95718 (parent)
chain: KRLCLVCGDIASGYHYGVASCEACKAFFKRTIQGNIEYSCPATNECEITKRRRKSCQACRFMKCLKVGMLKEGVRLD

Variants of: B1
Experiment: abundance fitness (aPCA) (normalised: wild type 0, dead -1); higher = more abundant; growth selection in yeast, the domain comes from the species named
Settings: Homo sapiens

First: KRLCLVCGDIASGYHYGVASCEACKAFFKRTIQGNIEYSCPATNECEITKRRRKGCQACRFMKCLKVGMLKEGVRLD [S55G]
Second: KRLCIVCGDIASGYHYGVASCEACKAFFKRTIQGNIEYSCPATNECEITKRRRKSCQACRFMKCLKVGMLKEGVRLD [L5I]
The abundance fitness of the first is higher: 0.336 ± 0.039 for the first, -0.333 ± 0.12 for the second.

First: KRLCGVCGDIASGYHYGVASCEACKAFFKRTIQGNIEYSCPATNECEITKRRRKSCQACRFMKCLKVGMLKEGVRLD [L5G]
Second: KRLCLVCGDIASGYHYGVASCEACKAFFKRTIQGNIEYSCPATNECEITKRRRKSCQACRFMKCRKVGMLKEGVRLD [L65R]
The abundance fitness of the first is higher: -0.341 ± 0.052 for the first, -0.459 ± 0.052 for the second.

Compared with KRLCLVCGDIASGYHYGVASCEACKAFFKRTIQGNIEYSCPATNECEITKRRRKSCQACRFMKCKKVGMLKEGVRLD [L65K], KRLCLVCGDIASGYHYGVASCEACKAFFKRTIQGHIEYSCPATNECEITKRRRKSCQACRFMKCLKVGMLKEGVRLD [N35H] is higher in abundance fitness: -0.466 ± 0.085 for the first, 0.031 ± 0.094 for the second.

Going from KRLCLVCGDIASGYHYGVASCEACKAFFKRTIQGDIEYSCPATNECEITKRRRKSCQACRFMKCLKVGMLKEGVRLD [N35D] to KRLCLVCGDIASGYHYGVASCEACKAFFKRTIQGNIEYSCPATNECEITKRRRKSCQACRFIKCLKVGMLKEGVRLD [M62I], the abundance fitness falls from 0.111 ± 0.079 to -0.148 ± 0.087.

Compared with RRLCLVCGDIASGYHYGVASCEACKAFFKRTIQGNIEYSCPATNECEITKRRRKSCQACRFMKCLKVGMLKEGVRLD [K1R], KRLCLVCGDIASGYHYGVASCEACKAFHKRTIQGNIEYSCPATNECEITKRRRKSCQACRFMKCLKVGMLKEGVRLD [F28H] is lower in abundance fitness: -0.286 ± 0.074 for the first, -0.748 ± 0.18 for the second.

First: KRLCLVCGDIASGYHYGVASCEACKAFFKRTIQGNIEYSCPATNECEITKRRRKSCQACRFMKCLKVGMLKEGVRLP [D77P]
Second: KRLCLVCGDIASGYHYGVASCEACKAFFKRTIQGNIEYSCPATNECEITKRRRKSCQACRFMKCLKVGMLKEGVRLA [D77A]
The abundance fitness of the first is higher: 0.171 ± 0.1 for the first, -0.131 ± 0.073 for the second.

KRLCLVCGDIASGYHYGVASCEACKAFFKRTIQGNIEYSCPATNECEIQKRRRKSCQACRFMKCLKVGMLKEGVRLD [T49Q] and KRLCLVCGDIASGYHYGVASCEACKAFFKRTIQGNIEYSCPATNECERTKRRRKSCQACRFMKCLKVGMLKEGVRLD [I48R] are within error of each other in abundance fitness: -0.332 ± 0.15 for the first, -0.518 ± 0.093 for the second.

First: KRLCLVCGDIASGYHYGVASCEACKAFFKRTIQGNIEYSCPATNECEITKRRRKSCQACRFMKCLKVGMLKHGVRLD [E72H]
Second: KRLCLVCGDIASGYHYGVASCEACKAFFKRTIQGNIEYSCPATNECEITKRRRKSCQACRFMKCLKVGMLKPGVRLD [E72P]
The abundance fitness of the first is lower: -0.368 ± 0.18 for the first, -0.029 ± 0.065 for the second.

Going from KRLCLVCGDIASGYHYGVASCEACKAFFKRTIQGNIEYSCPATNECEITKRRRKSCQACRFMKCLKVGMLKQGVRLD [E72Q] to KRLCLVCGDIASGYHYGVASCEACKAFFKRTIQGNIEYSCPARNECEITKRRRKSCQACRFMKCLKVGMLKEGVRLD [T43R], the abundance fitness rises from -0.16 ± 0.075 to 0.043 ± 0.035.

KRLCLVCGDIASGYHYGVASCEACKAFFKRTIQGNIEYSCPATNECEITKQRRKSCQACRFMKCLKVGMLKEGVRLD [R51Q] and KRLCLVCGDIASGYHYGVASCEACKAFFKRTIQGNIEYSCPATNECEITKDRRKSCQACRFMKCLKVGMLKEGVRLD [R51D] are within error of each other in abundance fitness: 0.119 ± 0.1 for the first, -0.084 ± 0.13 for the second.

Compared with KRLCLVCGDIASGYHYWVASCEACKAFFKRTIQGNIEYSCPATNECEITKRRRKSCQACRFMKCLKVGMLKEGVRLD [G17W], KRLCLVCGDIASGYHYGVASCEACKAFFKRTIQGNIEYSCPATNECEITKRRPKSCQACRFMKCLKVGMLKEGVRLD [R53P] is higher in abundance fitness: -0.359 ± 0.075 for the first, -0.069 ± 0.074 for the second.

KRLCLVCGDIASGYHYGVASCEACKAFFKRTIQGNIEYSCPATNECEITKRRGKSCQACRFMKCLKVGMLKEGVRLD [R53G] and KRLCLVCGDWASGYHYGVASCEACKAFFKRTIQGNIEYSCPATNECEITKRRRKSCQACRFMKCLKVGMLKEGVRLD [I10W] are within error of each other in abundance fitness: 0.049 ± 0.043 for the first, 0.074 ± 0.06 for the second.

KRLCLVCGDIASGYHYGVASCEACKAFFKRTIAGNIEYSCPATNECEITKRRRKSCQACRFMKCLKVGMLKEGVRLD [Q33A] and KRLCLVCGDIASGYHYGVASCEACKAFFKRTILGNIEYSCPATNECEITKRRRKSCQACRFMKCLKVGMLKEGVRLD [Q33L] are within error of each other in abundance fitness: -0.075 ± 0.054 for the first, -0.146 ± 0.051 for the second.

KRLCLVCGDIASGYHYGVASCEACKAFFKRTIQGNLEYSCPATNECEITKRRRKSCQACRFMKCLKVGMLKEGVRLD [I36L] and KRLCLVCGDIASGYHYGVASCEACKAFFKRTIQGNMEYSCPATNECEITKRRRKSCQACRFMKCLKVGMLKEGVRLD [I36M] are within error of each other in abundance fitness: -0.162 ± 0.048 for the first, -0.074 ± 0.056 for the second.

Compared with KRLCLVCGDIASGYHYGVASCEACKAFFKRTIQGNCEYSCPATNECEITKRRRKSCQACRFMKCLKVGMLKEGVRLD [I36C], KRLCLVCGDIASGYHYGVASCEACKAFFKRTIQGNIEYSCPATNECEITKRRRKSCQACRFMKCLKGGMLKEGVRLD [V67G] is lower in abundance fitness: -0.037 ± 0.076 for the first, -0.425 ± 0.056 for the second.

KRLCLVCGDIASGYHYGVASCEACKAFFKRTIQGNIEYSCPATNECEITKRRRKSCQACRFMKCLKRGMLKEGVRLD [V67R] and KRLCLVCGDIASGYHYGEASCEACKAFFKRTIQGNIEYSCPATNECEITKRRRKSCQACRFMKCLKVGMLKEGVRLD [V18E] are within error of each other in abundance fitness: -0.409 ± 0.056 for the first, -0.399 ± 0.14 for the second.

Going from KRLCLVCGDIACGYHYGVASCEACKAFFKRTIQGNIEYSCPATNECEITKRRRKSCQACRFMKCLKVGMLKEGVRLD [S12C] to KRLCLVCGDIALGYHYGVASCEACKAFFKRTIQGNIEYSCPATNECEITKRRRKSCQACRFMKCLKVGMLKEGVRLD [S12L], the abundance fitness falls from 0.155 ± 0.073 to -0.156 ± 0.053.

Variant KRLCLVCGDIASGYHYGVASCEACKAFFKRTIQGNIEYSCPATNECEITKRRRASCQACRFMKCLKVGMLKEGVRLD [K54A] has an abundance fitness of 0.009 ± 0.055.
